The supplement of paper PMC7125110
± gives the standard error. Variants at the floor of the assay were thinned out.

B1: glmS ribozyme (parent)
chain: AUAAAAGCGCCAGAACUACAGAAAUGUAGUUGACGAGGAGGAGGUUUAUCGAAUUUUCGGCGGAUGCCUCCAAA

Tests used:
Details in all cases: with glucosamine-6-phosphate
[1] = variants of: B1; assay: self-cleavage kobs at 40 uM GlcN6P; higher = faster cleavage; RNA array
In short: (§1)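 Barcoded ribozyme variants on sequenced MiSeq chips were transcribed in situ by E. coli RNA polymerase and followed at 37 °C through a hybridised Cy3 probe. Glucosamine-6-phosphate at 40 μM to 10 mM in HEPES/KCl/Mg(OAc)2 buffer was flowed in, and tiles were imaged over ~14 h. Signals were normalised to baseline and to non-cleaving reference variants, and per-tile medians were fit to one- or two-exponential decays to give kobs. Weighted Michaelis–Menten fits across concentrations gave kcat and KM.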

[2] = variants of: B1; assay: self-cleavage kobs at 640 uM GlcN6P; higher = faster cleavage; RNA array
In short: as §1

[3] = variants of: B1; assay: self-cleavage kobs at 2500 uM GlcN6P; higher = faster cleavage; RNA array
In short: as §1

[4] = variants of: B1; assay: self-cleavage kobs at 160 uM GlcN6P; higher = faster cleavage; RNA array
In short: as §1

[5] = variants of: B1; assay: self-cleavage kobs at 10000 uM GlcN6P; higher = faster cleavage; RNA array
In short: as §1

Variant	self-cleavage kobs at 40 uM GlcN6P [1] [s⁻¹]	self-cleavage kobs at 640 uM GlcN6P [2] [s⁻¹]	self-cleavage kobs at 2500 uM GlcN6P [3] [s⁻¹]	self-cleavage kobs at 160 uM GlcN6P [4] [s⁻¹]	self-cleavage kobs at 10000 uM GlcN6P [5] [s⁻¹]
C8A C11U G38C C50U	< 1e-05	< 1e-05	< 1e-05	–	–
G40U C61U	< 1e-05	–	–	< 1e-05	–
A33C G40C	< 1e-05	< 1e-05	–	< 1e-05	–
C11G A36G	< 1e-05	< 1e-05	< 1e-05	< 1e-05	< 1e-05
G44U C50G	< 1e-05	–	–	–	< 1e-05
A39C U55G	0.000197 ± 7e-05	0.00104 ± 0.00022	–	0.000315 ± 8.7e-05	–
C50G U65C C67U	6.84e-05 ± 1.4e-05	–	0.000106 ± 2e-05	–	9.96e-05 ± 1.4e-05
C8G C34U A42U	< 1e-05	–	–	–	–
G41U G63U	< 1e-05	< 1e-05	< 1e-05	< 1e-05	< 1e-05
G41A G60U	< 1e-05	< 1e-05	–	–	< 1e-05
A6G A15U C16G A53G C61G G63A	< 1e-05	< 1e-05	< 1e-05	< 1e-05	–
C50A U57G C68U	< 1e-05	–	–	–	< 1e-05
C10G G35U A39U	< 1e-05	–	–	–	–
G40C U54G	0.000126 ± 1.3e-05	0.000766 ± 0.00015	0.0025 ± 0.00059	0.000127 ± 3e-05	0.00251 ± 0.00031
A6C G35U	< 1e-05	–	< 1e-05	< 1e-05	< 1e-05
G7A A39C A52U G60A C67U	< 1e-05	–	–	–	–
A42C G51A	< 1e-05	–	< 1e-05	–	< 1e-05
G29U A39G A64U	< 1e-05	–	–	–	–
G38U G59A C68G	6.06e-05 ± 2.6e-05	–	–	–	4.84e-05 ± 1.9e-05
C16G A42G	0.000233 ± 5.6e-05	0.000804 ± 0.0003	–	0.000208 ± 9.6e-05	0.00496 ± 0.001
A12G G32A	< 1e-05	–	–	< 1e-05	5.21e-05 ± 7.4e-06
G13C G35A	< 1e-05	< 1e-05	< 1e-05	< 1e-05	< 1e-05
C11G A33C	< 1e-05	–	< 1e-05	< 1e-05	–
G13U A15U G43C U57C C58G	< 1e-05	–	–	–	–

Variant	self-cleavage kobs at 40 uM GlcN6P [1] [s⁻¹]	self-cleavage kobs at 640 uM GlcN6P [2] [s⁻¹]	self-cleavage kobs at 2500 uM GlcN6P [3] [s⁻¹]	self-cleavage kobs at 160 uM GlcN6P [4] [s⁻¹]	self-cleavage kobs at 10000 uM GlcN6P [5] [s⁻¹]
G13A A33G	< 1e-05	< 1e-05	–	–	–
A39U G51U	< 1e-05	< 1e-05	–	–	< 1e-05
G7C U49G	< 1e-05	–	–	< 1e-05	–
A6G A12G G66U	< 1e-05	–	–	–	–
C34G G62U	< 1e-05	–	< 1e-05	–	< 1e-05
A33U G38U G40U	< 1e-05	–	–	–	–
C10U G40U A48U	< 1e-05	< 1e-05	–	–	< 1e-05
C10G A52U G59C	< 1e-05	< 1e-05	< 1e-05	< 1e-05	–
A12U C70G	0.000124 ± 1.2e-05	0.000558 ± 0.00013	–	0.000175 ± 2.3e-05	0.001 ± 0.00029
G29A G66A	7.16e-05 ± 1.8e-05	–	–	–	0.00305 ± 0.00076
G40A U45G	5.96e-05 ± 1.5e-05	0.000563 ± 0.00021	0.000133 ± 4.2e-05	–	0.000145 ± 3.5e-05
G32A U57G	< 1e-05	–	–	–	–
G7C G13C G63U C70G	< 1e-05	< 1e-05	< 1e-05	–	< 1e-05
C16A G43U C68G C71U	< 1e-05	–	–	–	–
U2C A33G	< 1e-05	–	< 1e-05	< 1e-05	< 1e-05
C8A G38A	< 1e-05	< 1e-05	< 1e-05	< 1e-05	< 1e-05
A52G A53C	< 1e-05	–	–	–	–
A6C G13U A53U	< 1e-05	–	–	–	< 1e-05
U31C A39U U54C C71U	5.15e-05 ± 1.1e-05	–	0.000671 ± 0.00024	–	0.00213 ± 0.00023
U30A G35A G51A G60U	< 1e-05	–	–	–	< 1e-05
G13C A48U C70G	< 1e-05	–	–	–	< 1e-05
A36U G38C A53C	< 1e-05	–	–	–	–
A53U G66A C67U	7.59e-05 ± 1.6e-05	–	–	–	0.00355 ± 0.00067
C11U A42C U56A C68A	< 1e-05	–	–	–	< 1e-05
